Data on 11 molecules can be found in patent publication US20250215083A1 (JIANGSU HENGRUI PHARMACEUTICALS, published 2025).

Substitutions are numbered along the chain they refer to.

The chains are these.
B1: Chi-24 (antibody, human IgG1, kappa, L234A L235A, V domains shown)
VH: QVQLQQSDAELVKPGGSVKISCKVSGYTFTDYPIHWMKQRPEQGLEWMGYVFPRDGSTKYNEKFRVKATWTADKSSSTVYMQLNSLTSDDSAVYFCSRELTAYWGQGTTLRVSS
VL: not shown
B2: F11-19 (bispecific antibody)
heavy: not shown
light: DIVMTQSQKFMSTSVGDRVSVTCKASQNVGSNVAWYQQKPGQSPKALIYSASYRYSGVPDRFTGSGSGTDFTLTISNVQSEDLAEYFCHQYNSYPPTFGAGTKLALKRTVAAPSVFIFPPSDEQLKSGTASVVCLLNNFYPREAKVQWKVDNALQSGNSQESVTEQDSKDSTYSLSSTLTLSKADYEKHKVYACEVTHQGLSSPVTKSFNRGEC
notes: formula 11 with Chi-30 variable regions
B3: F4-1 (bispecific antibody)
heavy 1: not shown
light 1: not shown
heavy 2: EVQLVESGGGLVQPGGSLRLSCAASGFTFTDYYLSWVRQAPGKGLEWVAFIRNRAKGYTTEYSASVKGRFTISRDNAKNSLYLQMNSLRAEDTAVYYCARMGGKGWHFDVWGQGTTVTVSSASTKGPSVFPLAPSSKSTSGGTAALGCLVKDYFPEPVTVSWNSGALTSGVHTFPAVLQSSGLYSLSSVVTVPSSSLGTQTYICNVNHKPSNTKVDKKVEPKSCDKTHTCPPCPAPEAAGGPSVFLFPPKPKDTLMISRTPEVTCVVVDVSHEDPEVKFNWYVDGVEVHNAKTKPREEQYNSTYRVVSVLTVLHQDWLNGKEYKCKVSNKALPAPIEKTISKAKGQPREPQVCTLPPSRDELTKNQVSLSCAVKGFYPSDIAVEWESNGQPENNYKTTPPVLDSDGSFFLVSKLTVDKSRWQQGNVFSCSVMHEALHNHYTQKSLSLSPGK
light 2: DVVMTQSPLSLPVTPGEPASISCRSSQSIVHSNRNTYLEWYLQKPGQSPKLLIYKVSNRFSGVPDRFFGSGSGTDFTLKINRVEAEDVGVYYCFQGSHVPFTFGGGTKVEIKRTVAAPSVFIFPPSDEQLKSGTASVVCLLNNFYPREAKVQWKVDNALQSGNSQESVTEQDSKDSTYSLSSTLTLSKADYEKHKVYACEVTHQGLSSPVTKSFNRGEC
notes: formula 4
B4: F4-3 (bispecific antibody)
heavy 1: not shown
light 1: not shown
heavy 2: B3 heavy 2 with K78Q
light 2: B3 light 2
notes: formula 4
B5: F4-2 (bispecific antibody)
heavy 1: not shown
light 1: not shown
heavy 2: B3 heavy 2 with A77S
light 2: B3 light 2
notes: formula 4
B6: Chi-45 (antibody, human IgG1, kappa, L234A L235A, V domains shown)
VH: EVKLVESGGGLVQPGDFLSLSCAASGFTFTDYYLSWVRQPPGKALEWLAFIRNRAKGYTTEYSASVKGRFTISRDNSQSILYLQMNVLRAEDSATYYCARMGGKGWHFDVWGTGTTVTVSS
VL: DVLMTQSPLSLPVSLGDQASISCRSSQSIVHSNGNTYLEWYLQKPGQSPKLLIYKVSNRFSGVPDRFFGSGSGTDFTLKINRVEAEDLGVYYCFQGSHVPFTFGGGTKLEIKR
B7: F11-17 (bispecific antibody)
heavy: not shown
light: DVVMTQTPLSLSVSLGDQASISCRSSQSLVHSNGNTYLYWYLQKPGQSPKLLIYKVSNRFSGVPDRFSGSGSGTDFTLKISRVEAEDLGVYFCSQSTHVPPLTFGAGTKLELKRTVAAPSVFIFPPSDEQLKSGTASVVCLLNNFYPREAKVQWKVDNALQSGNSQESVTEQDSKDSTYSLSSTLTLSKADYEKHKVYACEVTHQGLSSPVTKSFNRGEC
notes: formula 11 with Chi-1 variable regions
B8: Chi-1 (antibody, human IgG1, kappa, L234A L235A, V domains shown)
VH: EVQLVESGGGLVKPGGSLKLSCAASGFTFSDYGMHWVRQAPEKGLEWVAFISSGSSTIYYADTVKGRFTISRDNAKNTLFLQMTSLRSEDTAIYYCTRLGPNWYFDVWGTGTTVTVSS
VL: DVVMTQTPLSLSVSLGDQASISCRSSQSLVHSNGNTYLYWYLQKPGQSPKLLIYKVSNRFSGVPDRFSGSGSGTDFTLKISRVEAEDLGVYFCSQSTHVPPLTFGAGTKLELKR
B9: F11-18 (bispecific antibody)
heavy: not shown
light: DVVLTQTPLTLSVTIGQPASISCKSSQSLLHSNGKTYLNWLLQRPGQSPRRLIYLVSKLDSGVPDRFAGSGSGTDFTLKITRVEAEDLGVYYCAQGTHFPRTFGGGSKLEIRRTVAAPSVFIFPPSDEQLKSGTASVVCLLNNFYPREAKVQWKVDNALQSGNSQESVTEQDSKDSTYSLSSTLTLSKADYEKHKVYACEVTHQGLSSPVTKSFNRGEC
notes: formula 11 with Chi-24 variable regions
B10: Chi-30 (antibody, human IgG1, kappa, L234A L235A, V domains shown)
VH: EVQLQQSGPELVKPGGSMKISCKASGYSFTGYTMNWVKQSHGKNPEWIGLINPYNGGTRNNQKFKDKATLTVDKSSSTAYMELLSLTSEDSAVYYCTRWGLRLAMDYWGQGTSVTVSS
VL: DIVMTQSQKFMSTSVGDRVSVTCKASQNVGSNVAWYQQKPGQSPKALIYSASYRYSGVPDRFTGSGSGTDFTLTISNVQSEDLAEYFCHQYNSYPPTFGAGTKLALKR
B11: JNJ-64407564 (bispecific antibody, human IgG4 S228P, kappa, lambda, F234A L235A)
heavy 1: not shown
light 1: DIQMTQSPSSLSASVGDRVTITCKASQNVATHVGWYQQKPGKAPKRLIYSASYRYSGVPSRFSGSGSGTEFTLTISNLQPEDFATYYCQQYNRYPYTFGQGTKLEIKRTVAAPSVFIFPPSDEQLKSGTASVVCLLNNFYPREAKVQWKVDNALQSGNSQESVTEQDSKDSTYSLSSTLTLSKADYEKHKVYACEVTHQGLSSPVTKSFNRGEC
heavy 2: EVQLVESGGGLVQPGGSLRLSCAASGFTFNTYAMNWVRQAPGKGLEWVARIRSKYNNYATYYAASVKGRFTISRDDSKNSLYLQMNSLKTEDTAVYYCARHGNFGNSYVSWFAYWGQGTLVTVSSASTKGPSVFPLAPCSRSTSESTAALGCLVKDYFPEPVTVSWNSGALTSGVHTFPAVLQSSGLYSLSSVVTVPSSSLGTKTYTCNVDHKPSNTKVDKRVESKYGPPCPPCPAPEAAGGPSVFLFPPKPKDTLMISRTPEVTCVVVDVSQEDPEVQFNWYVDGVEVHNAKTKPREEQFNSTYRVVSVLTVLHQDWLNGKEYKCKVSNKGLPSSIEKTISKAKGQPREPQVYTLPPSQEEMTKNQVSLTCLVKGFYPSDIAVEWESNGQPENNYKTTPPVLDSDGSFLLYSKLTVDKSRWQEGNVFSCSVMHEALHNHYTQKSLSLSLGK
light 2: QTVVTQEPSLTVSPGGTVTLTCRSSTGAVTTSNYANWVQQKPGQAPRGLIGGTNKRAPGTPARFSGSLLGGKAALTLSGVQPEDEAEYYCALWYSNLWVFGGGTKLTVLGQPKAAPSVTLFPPSSEELQANKATLVCLISDFYPGAVTVAWKADSSPVKAGVETTTPSKQSNNKYAASSYLSLTPEQWKSHRSYSCQVTHEGSTVEKTVAPTECS
notes: anti-GPRC5D arm and anti-CD3E arm; also called positive control molecule

For the first assay, the target named is T1, human GPRC5D (human, UniProt Q9NZD1 1-345).
T1 construct: whole, on cells; also called membrane surface GPRC5D
T1 sequence (Q9NZD1 whole entry): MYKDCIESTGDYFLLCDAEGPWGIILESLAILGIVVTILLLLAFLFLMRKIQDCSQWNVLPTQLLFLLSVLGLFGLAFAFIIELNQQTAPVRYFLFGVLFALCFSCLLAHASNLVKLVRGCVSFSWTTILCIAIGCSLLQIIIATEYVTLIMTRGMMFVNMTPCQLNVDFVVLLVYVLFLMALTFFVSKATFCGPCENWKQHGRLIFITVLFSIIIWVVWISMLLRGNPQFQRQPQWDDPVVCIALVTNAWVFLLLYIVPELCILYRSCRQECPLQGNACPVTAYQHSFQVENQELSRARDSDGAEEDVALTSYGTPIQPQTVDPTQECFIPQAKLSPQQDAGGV
As to the kind of experiment: FACS, MM.1R cells. As for the experimental part: (§1) To test the capacity of the GPRC5D/CD3 bispecific antibodies of the present disclosure to bind to GPRC5D, a flow cytometry assay was used in this test example to measure the capacity of the GPRC5D/CD3 bispecific antibodies to bind to the human multiple myeloma cell line MM.1R (ATCC® CRL-2975), which expresses GPRC5D, and to a stably transfected cell strain CHOK1-cynoGPRC5D, which expresses cynomolgus monkey GPRC5D. The specific procedure was as follows: The cells described above were cultured in complete culture medium containing 10% FBS, incubated in a 37° C., 5% CO₂ incubator for 2 days, and added to a cell plate at 1×10⁵ cells/well. The plate was centrifuged at 300 g for 5 min and washed once with 1% BSA. The antibodies were serially diluted to 8 concentrations and added to the cell plate at 100 μL/well. The plate was incubated at 4° C. for 1 h and washed once with 1% BSA. […] The plate was washed three times with 1% BSA, PBS was added at 100 μL/well, and plate reading was performed.
For B1, it took 2.81 nM to reach a half-maximal effect (EC50) and the Max is 5000.

The molecule B2 registered an EC50 of 1.32 nM and a Max of 1140.

B3: the midpoint of the response, the EC50, lay at 16.9 nM and the Max worked out at 13800.

As for B4, the EC50 is 16.1 nM and the Max was 13800.

B5 showed a concentration giving a half-maximal response (EC50) of 15.8 nM and a Max of 13700.

In turn, B6 returned an EC50 of 1.64 nM and a Max of 1250.

B7 displayed an EC50 of 0.31 nM and a Max of 1.82.

Molecule B8 registered an EC50 of 1.43 nM and a Max of 5210.

B9: the EC50 worked out at 1.57 nM and the Max is 1300.

As to B10, the response was half-maximal at 0.46 nM (EC50) and the Max amounted to 2100.

The next assay has as its target T2, cynomolgus monkey GPRC5D (cynomolgus monkey).
T2 construct: whole, on cells; also called CynoGPRC5D; cynoGPRC5D
As to the kind of experiment: FACS, CHOK1-cynoGPRC5D cells. The protocol: as §1
With B11, the response was half-maximal at 0.06 nM (EC50) and the Max was found to be 0.26.

B1 displayed an EC50 of 3.96 nM and a Max of 9630.

In turn, B2 yielded an EC50 of 2.71 nM and a Max of 9790.

Take B3: the EC50 was determined as 3.28 nM and the Max amounted to 76600.

Molecule B4 yielded an EC50 of 3.83 nM and a Max of 76100.

B5 had an EC50 of 3.45 nM and a Max of 75200.

Turning to B6, the midpoint of the response, the EC50, lay at 1.91 nM and the Max was found to be 14600.

In turn, B7 displayed an EC50 of 0.35 nM and a Max of 0.98.

B8 came in with an EC50 of 1.2 nM and a Max of 7880.

For the molecule B10, it took 1.57 nM to reach a half-maximal effect (EC50) and the Max was determined as 7940.
